# From patent US20220153847A1 (Chugai, published 2022)
# B1: DQN0429cc (antibody, V domains shown)
# VH: QEQLVESGGGLVQPEGSLTLTCTASGFSFSSSYYMCWVRQAPGKGLEWIGCIYTGSGSTDYATWVNGRFTISKTSSTTVTLQMTSLTVADTATYFCARDIGIDYNFWGPGTLVTVSS
# VL: AFELTQTPSFVEARVGGTVTIKCQATQSISSYLNWYQQKPGQPPKLLIYYASTLASGVPSRFKGSGSGTEFTLTISGVECADAATYYCHYGISYVSFGGGTKVEIK
# notes: also called DQN0492cc
# Tests used:
# [1] = target: DQ2.5/alpha 2 gliadin peptide on IHW9023 cells (human); experiment: cell-based or functional assay
# [2] = target: DQ2.5/omega 2 gliadin peptide on IHW9023 cells (human); experiment: cell-based or functional assay
# [3] = target: DQ2.5/gamma 1 gliadin peptide on IHW9023 cells (human); experiment: cell-based or functional assay
# [4] = target: DQ2.5/BC hordein peptide on IHW9023 cells (human); experiment: cell-based or functional assay
# [5] = target: T1, HLA-DQ2.2 on Ba/F3 cells (human, UniProt P01909 24-216, limits assumed); experiment: FACS, Ba/F3 cells; IC17=0%, DQN0139bb=100%;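 also: flow cytometric binding of anti-HLA-DQ antibodies, each applied at 5 µg/mL for 30 min at room temperature, to Ba/F3 cell lines displaying HLA-DQ–peptide complexes; antibody tested at 5 microgram/mL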
# T1 construct: whole, on cells; also called Ba/F3-HLA-DQ2.2
# From the text: (§1) The binding of anti-HLA-DQ antibodies to Ba/F3-HLA-DQ2.5, Ba/F3-HLA-DQ2.2, Ba/F3-HLA-DQ7.5, Ba/F3-HLA-DQ8, Ba/F3-HLA-DQ5.1, Ba/F3-HLA-DQ6.3, Ba/F3-HLA-DQ7.3, Ba/F3-HLA-DR, Ba/F3-HLA-DP, Ba/F3-HLA-DQ2.5/CLIP, Ba/F3-HLA-DQ2.5/HBV, Ba/F3-HLA-DQ2.5/Salmonella, Ba/F3-HLA-DQ2.5/TPO, Ba/F3-HLA-DQ2.5/M. bovis, Ba/F3-HLA-DQ2.5/alpha 1 gliadin, Ba/F3-HLA-DQ2.5/alpha 2 gliadin, Ba/F3-HLA-DQ2.5/gamma 1 gliadin, Ba/F3-HLA-DQ2.5/gamma 2 gliadin, Ba/F3-HLA-DQ2.5/omega 1 gliadin, Ba/F3-HLA-DQ2.5/omega 2 gliadin, Ba/F3-HLA-DQ2.5/BC hordein, Ba/F3-HLA-DQ2.5/alpha 3 gliadin, Ba/F3-HLA-DQ2.5/alpha 1b gliadin, Ba/F3-HLA-DQ2.5/gamma 4b gliadin, Ba/F3-HLA-DQ2.5/avenin 1, Ba/F3-HLA-DQ2.5/avenin 2, Ba/F3-HLA-DQ2.5/avenin 3, Ba/F3-HLA-DQ2.5/hordein 1, Ba/F3-HLA-DQ2.5/hordein 2, Ba/F3-HLA-DQ2.5/secalin 1, Ba/F3-HLA-DQ2.5/secalin 2, Ba/F3-HLA-DQ2.5/14mer 1, Ba/F3-HLA-DQ2.5/33mer gliadin, Ba/F3-HLA-DQ2.5/26mer gliadin, was tested. 5 microgram/mL of each of the anti-HLA-DQ antibodies was incubated with each cell line for 30 minutes at room temperature and washed with FACS buffer (2% FBS, 2 mM EDTA in PBS).
# T1 MHC II alpha: not shown
# T1 MHC II beta: not shown
# [6] = target: T2, HLA-DQ7.5 on Ba/F3 cells (human, UniProt P01909 24-216; P01920 33-230, limits assumed); experiment: FACS, Ba/F3 cells; IC17=0%, DQN0139bb=100%;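 also: flow cytometric binding of anti-HLA-DQ antibodies, each applied at 5 µg/mL for 30 min at room temperature, to Ba/F3 cell lines displaying HLA-DQ–peptide complexes; antibody tested at 5 microgram/mL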
# T2 construct: whole, on cells; also called Ba/F3-HLA-DQ7.5
# From the text: as §1
# [7] = target: T3, HLA-DQ8 on Ba/F3 cells (human, UniProt P01909 24-216; P01920 33-230, limits assumed); experiment: FACS, Ba/F3 cells; IC17=0%, DQN0139bb=100%;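 also: flow cytometric binding of anti-HLA-DQ antibodies, each applied at 5 µg/mL for 30 min at room temperature, to Ba/F3 cell lines displaying HLA-DQ–peptide complexes; antibody tested at 5 microgram/mL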
# T3 construct: whole, on cells; also called Ba/F3-HLA-DQ8
# From the text: as §1
# T3 MHC II alpha: not shown
# T3 MHC II beta: not shown
# [8] = target: T4, HLA-DQ7.3 on Ba/F3 cells (human, UniProt P01909 24-216; P01920 33-230, limits assumed); experiment: FACS, Ba/F3 cells; IC17=0%, DQN0139bb=100%;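 also: flow cytometric binding of anti-HLA-DQ antibodies, each applied at 5 µg/mL for 30 min at room temperature, to Ba/F3 cell lines displaying HLA-DQ–peptide complexes; antibody tested at 5 microgram/mL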
# T4 construct: whole, on cells; also called Ba/F3-HLA-DQ7.3
# From the text: as §1
# T4 MHC II alpha: not shown
# T4 MHC II beta: not shown
# [9] = target: T5, HLA-DQ2.5/CLIP peptide complex on Ba/F3 cells (human); experiment: FACS, Ba/F3 cells; IC17=0%, DQN0139bb=100%
# T5 construct: whole, on cells; also called Ba/F3-HLA-DQ2.5/CLIP
# From the text: as §1
# [10] = target: T6, HLA-DQ2.5/33mer gliadin peptide complex on Ba/F3 cells (human); experiment: FACS, Ba/F3 cells; IC17=0%, DQN0139bb=100%
# T6 construct: whole, on cells; also called Ba/F3-HLA-DQ2.5/33mer gliadin
# From the text: as §1
# [11] = target: T7, HLA-DQ2.5/alpha 2 gliadin peptide complex on Ba/F3 cells (human); experiment: FACS, Ba/F3 cells; IC17=0%, DQN0139bb=100%
# T7 construct: whole, on cells; also called Ba/F3-HLA-DQ2.5/alpha 2 gliadin; HLA-DQ2.5/a2 gliadin
# From the text: as §1
# [12] = target: T8, HLA-DQ2.5/gamma 1 gliadin peptide complex on Ba/F3 cells (human); experiment: FACS, Ba/F3 cells; IC17=0%, DQN0139bb=100%
# T8 construct: whole, on cells; also called Ba/F3-HLA-DQ2.5/gamma 1 gliadin; HLA-DQ2.5/g1 gliadin
# From the text: as §1
# [13] = target: T9, HLA-DQ2.5/gamma 2 gliadin peptide complex on Ba/F3 cells (human); experiment: FACS, Ba/F3 cells; IC17=0%, DQN0139bb=100%
# T9 construct: whole, on cells; also called Ba/F3-HLA-DQ2.5/gamma 2 gliadin; HLA-DQ2.5/g2 gliadin
# From the text: as §1
# [14] = target: T10, HLA-DQ2.5/omega 1 gliadin peptide complex on Ba/F3 cells (human); experiment: FACS, Ba/F3 cells; IC17=0%, DQN0139bb=100%
# T10 construct: whole, on cells; also called Ba/F3-HLA-DQ2.5/omega 1 gliadin; HLA-DQ2.5/w1 gliadin
# From the text: as §1
# [15] = target: T11, HLA-DQ2.5/omega 2 gliadin peptide complex on Ba/F3 cells (human); experiment: FACS, Ba/F3 cells; IC17=0%, DQN0139bb=100%
# T11 construct: whole, on cells; also called Ba/F3-HLA-DQ2.5/omega 2 gliadin; HLA-DQ2.5/w2 gliadin
# From the text: as §1
# [16] = target: T12, HLA-DQ2.5/BC hordein peptide complex on Ba/F3 cells (human); experiment: FACS, Ba/F3 cells; IC17=0%, DQN0139bb=100%
# T12 construct: whole, on cells; also called Ba/F3-HLA-DQ2.5/BC hordein
# From the text: as §1
# [17] = target: T13, HLA-DQ2.5/alpha 3 gliadin peptide complex on Ba/F3 cells (human); experiment: FACS, Ba/F3 cells; IC17=0%, DQN0139bb=100%
# T13 construct: whole, on cells; also called Ba/F3-HLA-DQ2.5/alpha 3 gliadin; HLA-DQ2.5/a3 gliadin
# From the text: as §1
# [18] = target: T14, HLA-DQ2.5/alpha 1b gliadin peptide complex on Ba/F3 cells (human); experiment: FACS, Ba/F3 cells; IC17=0%, DQN0139bb=100%
# T14 construct: whole, on cells; also called Ba/F3-HLA-DQ2.5/alpha 1b gliadin; HLA-DQ2.5/a1b gliadin
# From the text: as §1
# [19] = target: T15, HLA-DQ2.5/gamma 4b gliadin peptide complex on Ba/F3 cells (human); experiment: FACS, Ba/F3 cells; IC17=0%, DQN0139bb=100%
# T15 construct: whole, on cells; also called Ba/F3-HLA-DQ2.5/gamma 4b gliadin; HLA-DQ2.5/g4b gliadin
# From the text: as §1
# [20] = target: T16, HLA-DQ2.5/avenin 1 peptide complex on Ba/F3 cells (human); experiment: FACS, Ba/F3 cells; IC17=0%, DQN0139bb=100%
# T16 construct: whole, on cells; also called Ba/F3-HLA-DQ2.5/avenin 1
# From the text: as §1
# [21] = target: T17, HLA-DQ2.5/avenin 2 peptide complex on Ba/F3 cells (human); experiment: FACS, Ba/F3 cells; IC17=0%, DQN0139bb=100%
# T17 construct: whole, on cells; also called Ba/F3-HLA-DQ2.5/avenin 2
# From the text: as §1
# [22] = target: T18, HLA-DQ2.5/avenin 3 peptide complex on Ba/F3 cells (human); experiment: FACS, Ba/F3 cells; IC17=0%, DQN0139bb=100%
# T18 construct: whole, on cells; also called Ba/F3-HLA-DQ2.5/avenin 3
# From the text: as §1
# [23] = target: T19, HLA-DQ2.5/hordein 1 peptide complex on Ba/F3 cells (human); experiment: FACS, Ba/F3 cells; IC17=0%, DQN0139bb=100%
# T19 construct: whole, on cells; also called Ba/F3-HLA-DQ2.5/hordein 1
# From the text: as §1
# [24] = target: T20, HLA-DQ2.5/hordein 2 peptide complex on Ba/F3 cells (human); experiment: FACS, Ba/F3 cells; IC17=0%, DQN0139bb=100%
# T20 construct: whole, on cells; also called Ba/F3-HLA-DQ2.5/hordein 2
# From the text: as §1
# [25] = target: T21, HLA-DQ2.5/secalin 1 peptide complex on Ba/F3 cells (human); experiment: FACS, Ba/F3 cells; IC17=0%, DQN0139bb=100%
# T21 construct: whole, on cells; also called Ba/F3-HLA-DQ2.5/secalin 1
# From the text: as §1
# [26] = target: T22, HLA-DQ2.5/secalin 2 peptide complex on Ba/F3 cells (human); experiment: FACS, Ba/F3 cells; IC17=0%, DQN0139bb=100%
# T22 construct: whole, on cells; also called Ba/F3-HLA-DQ2.5/secalin 2
# From the text: as §1
# [27] = target: T23, HLA-DQ2.5/14mer 1 peptide complex on Ba/F3 cells (human); experiment: FACS, Ba/F3 cells; IC17=0%, DQN0139bb=100%
# T23 construct: whole, on cells; also called Ba/F3-HLA-DQ2.5/14mer 1
# From the text: as §1
# [28] = target: T24, HLA-DQ2.5/26mer gliadin peptide complex on Ba/F3 cells (human); experiment: FACS, Ba/F3 cells; IC17=0%, DQN0139bb=100%
# T24 construct: whole, on cells; also called Ba/F3-HLA-DQ2.5/26mer gliadin
# From the text: as §1
# T2 sequence (P01920 33-230 limits assumed, chain 2 of 4, other chains not shown): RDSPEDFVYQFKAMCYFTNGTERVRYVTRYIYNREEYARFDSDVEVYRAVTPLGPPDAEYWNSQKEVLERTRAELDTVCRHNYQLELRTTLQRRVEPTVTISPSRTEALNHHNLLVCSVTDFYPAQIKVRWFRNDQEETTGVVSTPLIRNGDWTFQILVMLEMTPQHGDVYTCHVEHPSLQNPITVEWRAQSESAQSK
# T5 sequence (P04233 96-124, chain 2 of 2, other chains not shown): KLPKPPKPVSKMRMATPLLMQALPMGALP
binder,measurement,setting,value
B1,"IC50, Jurkat NFAT-Luc T cell activation",[1],0.00497 µg/mL
same,"IC50, Jurkat NFAT-Luc T cell activation",[2],0.0215 µg/mL
same,"IC50, Jurkat NFAT-Luc T cell activation",[3],0.235 µg/mL
same,"IC50, Jurkat NFAT-Luc T cell activation",[4],0.786 µg/mL
same,% MFI,[5],0.7%
same,% MFI,[6],0.2%
same,% MFI,[7],0.2%
same,% MFI,[8],0.2%
same,% MFI,[9],0.2%
same,% MFI,[10],50.2%
same,% MFI,[11],67.7%
same,% MFI,[12],36.6%
same,% MFI,[13],6.2%
same,% MFI,[14],13.4%
same,% MFI,[15],45.5%
same,% MFI,[16],26.4%
same,% MFI,[17],9.4%
same,% MFI,[18],15.7%
same,% MFI,[19],13.6%
same,% MFI,[20],0.8%
same,% MFI,[21],2.9%
same,% MFI,[22],0.1%
same,% MFI,[23],4.5%
same,% MFI,[24],70.6%
same,% MFI,[25],11.8%
same,% MFI,[26],27.7%
same,% MFI,[27],58.5%
same,% MFI,[28],64%
